Data on two molecules can be found in publication PMC2929661.

Test in all cases: SPR
Background: In SPR one partner is held on a chip, and binding of the other changes the refractive index at the surface.

Test [1] deals with Human angiostatin kringles 1–5 (K1–5) (human).
Test [2] has the same target. The source holds these as a separate data set.
The target in test [3] is Recombinant yeast F1-ATPase (F1-ATP synthase protein complex) (yeast) (UniProt P07251).
The target is the same in test [4]. The source holds these as a separate data set.

Values joined by “and” are separate entries in the source; they are usually repeats but may differ in a detail not shown here. Equal entries are not always repeated. Where two headings read alike, the source gives them in different places.

By Kd is commonly meant the constant that tells how readily two partners part at equilibrium. Lower therefore signals a tighter complex. Usually koff stands for a measure of how fast the partners let go of each other. One may read the kon as the second-order rate constant of association. Consider “Recombinant yeast F1-ATPase (F1-ATP synthase protein complex) (from UniProt P07251 36-545; P00830 34-511; P38077 34-311)”, for which, in test [1], the Ka was 6.5e+06 M⁻¹ and 5.1e+06 M⁻¹; the Kd is 154 nM and 137 nM and 195 nM; the koff is 0.0002 s⁻¹ and 0.00019 s⁻¹; the kon is 1300 M⁻¹ s⁻¹ and 960 M⁻¹ s⁻¹. This molecule yielded a Kd in test [2] of 130 to 237 nM.

B1: Pigment epithelium-derived factor (PEDF), human recombinant (ligand)
chain: QNPASPPEEGSPDPDSTGALVEEEDPFFKVPVNKLAAAVSNFGYDLYRVRSSTSPTTNVLLSPLSVATALSALSLGAEQRTESIIHRALYYDLISSPDIHGTYKELLDTVTAPQKNLKSASRIVFEKKLRIKSSFVAPLEKSYGTRPRVLTGNPRLDLQEINNWVQAQMKGKLARSTKEIPDEISILLLGVAHFKGQWVTKFDSRKTSLEDFYLDEERTVRVPMMSDPKAVLRYGLDSDLSCKIAQLPLTGSMSIIFFLPLKVTQNLTLIEESLTSEFIHDIDRELKTVQAVLTVPKLKLSYEGEVTKSLQEMKLQSLFDSPDFSKITGKPIKLTQVEHRAGFEWNEDGAGTTPSPGLQPAHLTFPLDYHLNQPFIFVLRDTDTGALLFIGKILDPRGP
In general, IC50 refers to the concentration needed to halve the response being measured. For B1, the half-inhibitory concentration (IC50) in test [3] stood at 11.8 nM; in test [4] it was 17.3 nM.
